This is an account of results in patent publication EP4624492A1.

For assay [1], the target named is human CCR8 (human) (UniProt P51685). Put plainly: cell-based or functional assay.
For assay [2] the target is unchanged. Put plainly: flow cytometry on CHOK1-hCCR8 cells. Background: A flow cytometer gives signals particle by particle.
Assay [3] shares this target. Put plainly: flow cytometry on HuT78 cells (endogenous CCR8).
The target of assay [4] is cynomolgus CCR8 (cynomolgus monkey). Put plainly: flow cytometry on 293T-cynoCCR8 cells.
For assay [5], the target named is human CCR8 (human) (UniProt P51685). Put plainly: flow cytometry, competition with 10 nM AF647-human CCL1 on 293F-hCCR8 cells.
The target is the same in assay [6]. The description is as above. This is another data set of the same source.
Assay [7] shares this target. Put plainly: flow cytometry on 293F-hCCR8 cells.
Assay [8] has the same target. Put plainly: flow cytometry, competition with 10 nM AF647-human CCL1 on 293F-hCCR8 cells. This is another data set of the same source.
The target is the same in assay [9]. Put plainly: flow cytometry on 293F-hCCR8 cells. This is another data set of the same source.
Assay [10] has as its target cynomolgus CCR8 (cynomolgus monkey). Put plainly: flow cytometry on 293T-cynoCCR8 cells. The source holds these as a separate data set.
For assay [11], the target named is human CCR8 (human) (UniProt P51685). Put plainly: flow cytometry on 293F-hCCR8 cells. This is another data set of the same source.

Positions count from the first letter of the chain named. Where two headings read alike, the source gives them in different places.

human CCR8 (human), sequence (P51685 whole entry): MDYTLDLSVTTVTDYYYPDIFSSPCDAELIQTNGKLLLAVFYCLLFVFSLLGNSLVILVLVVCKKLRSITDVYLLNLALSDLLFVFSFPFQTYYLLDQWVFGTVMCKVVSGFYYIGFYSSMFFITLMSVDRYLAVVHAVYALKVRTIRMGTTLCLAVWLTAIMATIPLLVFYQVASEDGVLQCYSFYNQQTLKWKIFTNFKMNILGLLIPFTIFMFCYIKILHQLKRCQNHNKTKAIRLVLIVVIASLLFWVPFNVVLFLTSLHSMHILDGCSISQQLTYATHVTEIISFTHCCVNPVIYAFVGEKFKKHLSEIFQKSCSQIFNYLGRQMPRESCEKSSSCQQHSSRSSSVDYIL

B1: B16_hIgG1 (antibody, from another filing, V domains shown)
VH: EVQLVESGGGLVQPGGSLKLSCAASGFTFNTYAMNWVRQASGKGLEWVGRIRSKSNNYATYYADSVKDRFTISRDDSKNTAYLQMNSLKTEDTAVYYCVRGLLRYRFFDVWGQGTTVTVSS
VL: DIVMTQSPLSLPVTPGEPASISCRSSKSLLHSNGNTYLYWFLQKPGQSPQLLIYRMSNLASGVPDRFSGSGSGTDFTLKISRVEAEDVGVYYCMQHLEYPFTFGGGTKVEIKR
As usually defined, the EC50 is the concentration that produces a half-maximal response. Read a high EC50 as a need for much substance. On to B1, for which, in the assay with human CCR8 (human) [1], the EC50 of ADCC effect (lysis%) by human PBMCs on CHOK1-hCCR8 cells was 0.00238 µg/mL, the EC50 of activation of Jurkat-human FcγRIIIa(158V)-NFAT with 293F-hCCR8 target cells stood at 0.0131 µg/mL and the EC50 of activation of Jurkat-human FcγRIIIa(158V)-NFAT with CHOK1-hCCR8 target cells came out at 0.0265 µg/mL. Further, the EC50 in the assay with human CCR8 (human) [2] was found to be 0.0356 µg/mL. Also, the EC50 with human CCR8 (human) [3] came out at 0.0364 µg/mL.

B2: anti-human CCR8 433H (antibody, from another filing, V domains shown)
VH: EVQLVETGGGLVQPKGSLRLSCAASGFPFNTFAMNWVRQAPGKGLEWLARIRSKSNNYATYYADSVKDRFTISRDDSRRMLYLLMNNVKFEDTAIYYCVRGKENNYGYAMDYWGQGTSVTVSS
VL: DIVMTQAAPSVPVTPGESVSISCRSSQSLLHSNGNTYLYWFLQRPGQSPQLLIYRMSNLASGVPDRFSGSGSGTAFTLRISRVEAEDVGVYYCMQHLEYPFTFGIGTKLELKR
In general, IC50 refers to the concentration that gives 50% inhibition. Higher therefore signals weaker potency. As for B2, the EC50 in [4] is 14.6 µg/mL; with human CCR8 (human) [7], 0.153 µg/mL; with human CCR8 (human) [2] it was 0.0788 µg/mL; with human CCR8 (human) [3], 0.0763 µg/mL; with human CCR8 (human) [9], 0.156 µg/mL; in assay [10], 15.3 µg/mL. The molecule also displayed an EC50 with human CCR8 (human) [11] of 0.206 µg/mL. Moreover, the IC50 with human CCR8 (human) [5] was found to be 0.0965 µg/mL; with human CCR8 (human) [6], 0.0705 µg/mL; with human CCR8 (human) [8], 0.0943 µg/mL. For the same molecule, the IC50 of blockade of CCL1-induced β-arrestin recruitment with human CCR8 (human) [1] came out at 2.36 µg/mL. Further, the IC50 of blockade of CCL1-induced β-arrestin recruitment (Tango-H CCR8-CHO-K1 cells) with human CCR8 (human) [1] came out at 1.29 µg/mL.

B3: 4A19_hIgG1 (antibody, from another filing, V domains shown)
VH: QVQLVQSGAEVKKPGASVKVSCKASGYTFTDSEMHWVRQATGQGLEWMGAIQPETGGTAYNQKFKARVTMTRDTSISTAYMELSSLRSEDTAVYYCARRRRNFDYWGQGTLVTVSS
VL: DIVMTQTPLSLSVTPGQPASISCRSSQSLFHSSGNTYLHWYLQKPGQPPQLLIYKVSNRFSGVPDRFSGSGSGTDFTLKISRVEAEDVGVYYCSQSTHVPFTFGQGTKLEIKR
As to B3, the EC50 of activation of Jurkat-human FcγRIIIa(158V)-NFAT with CHOK1-hCCR8 target cells in the assay with human CCR8 (human) [1] is 0.0141 µg/mL.

B4: 559E1B10_hzH0L0_hIgG1 (antibody, V domains shown)
VH: QVQLVQSGAEVKKPGASVKVSCKASGYTFTDYYVNWVRQAPGQGLEWMGVINPHNGDTRYNQKFKGRVTMTRDTSTSTVYMELSSLRSEDTAVYYCASWLRRGYYFDSWGQGTTVTVSS
VL: EIVLTQSPATLSLSPGERATLSCRASQSISDYLHWYQQKPGQAPRLLIYYVSQSISGIPARFSGSGSGTDFTLTISSLEPEDFAVYYCQNGHSFPLTFGGGTKVEIKR
Molecule B4 gave an EC50 of activation of Jurkat-human FcγRIIIa(158V)-NFAT with 293F-hCCR8 target cells with human CCR8 (human) [1] of 0.855 µg/mL.

B5: 559E1B10_hzH1L0_hIgG1 (antibody, V domains shown)
VH: B4 VH with R72V, T74K
VL: B4 VL
Take B5: in the assay with human CCR8 (human) [1], the EC50 of activation of Jurkat-human FcγRIIIa(158V)-NFAT with 293F-hCCR8 target cells amounted to 1.69 µg/mL.

B6: 559E1B10_hzH2L0_hIgG1 (antibody, V domains shown)
VH: B4 VH with M48I, V68A, M70L, R72V, T74K
VL: B4 VL
In turn, B6 displayed an EC50 of activation of Jurkat-human FcγRIIIa(158V)-NFAT with 293F-hCCR8 target cells in the assay with human CCR8 (human) [1] of 0.706 µg/mL.
